According to paper PMC3626704 (BMC Biochemistry, 2013):

T1: 6-Helix-Fd (HIV-1 gp41 (HXB2-like, printed sequence), stabilised)
T1 construct: also called post-fusion six-helix bundle mimic
T1 chain: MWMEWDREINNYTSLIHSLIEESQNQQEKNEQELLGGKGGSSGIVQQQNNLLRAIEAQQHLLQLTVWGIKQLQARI


Tests used:
5-Helix [1] = molecular target: T2, 5-Helix (HIV-1 group M subtype B, HXB2 (gp41 …, stabilised)); test: ELISA; details: both partners purified
T2 construct: also called designed protein based on HIV-1 gp41

6-Helix-Fd [2] = molecular target: T1, 6-Helix-Fd; test: ELISA; details: both partners purified
5-Helix [3] = molecular target: T2, 5-Helix; test: ELISA; competitive phage ELISA, on-phage bivalent scFv: binding to immobilised 5-Helix inhibited by free 5-Helix or free 6-Helix-Fd (concentrations for the trimer); apparent; details: one partner purified
6-Helix-Fd [4] = molecular target: T1, 6-Helix-Fd; test: as above; details: one partner purified
5-Helix [5] = molecular target: T2, 5-Helix; test: ELISA; details: one partner purified

Binder | IC50 (5-Helix [1]) | IC50 (6-Helix-Fd [2]) | IC50 (5-Helix [3]) | IC50 (6-Helix-Fd [4]) | F_competitive (signal with 40 nM free 5-Helix / signal without) (5-Helix [5]) | phage ELISA signal OD450 (5-Helix [5])
D5 scFv, purified monovalent (scFv, V domains shown) VH: QVQLVQSGAEVRKPGASVKVSCKASGDTFSSYAISWVRQAPGQGLEWMGGIIPIFGTANYAQAFQGRVTITANESTSTAYMELSSLRSEDTAIYYCARDNPTLLGSDYWGAGTLVTVSS VL: DIQMTQSPSTLSASIGDRVTITCRASEGIYHWLAWYQQKPGKAPKLLIYKASSLASGAPSRFSGSGSGTDFTLTISSLQPDDFATYYCQQYSNYPLTFGGGTKLEIK | 7.3 nM | 290 nM |  |  |  | 
25A10 bivalent scFv on phage (scFv, V domains shown) VH: QVQLVQSGAEVRKPGASVKVSCKASGDTFSSYAISWVRQAPGQGLEWMGGIIPIFGTANYAQAFQGRVTITANESTSTAYMELSSLRSEDTAIYYCARDNPTLLGSDYWGAGTLVTVSS VL: DIQMTQSPSTLSASIGDRVTITCRASESISHNLAWYQQKPGKAPKLLISNASRLASGAPSRFSGSGSGTDFTLTISSLQPDDFATYYCQQYSNYPLTFGGGTKLEIK |  |  | 1.6 nM | 260 nM | 0.1 fraction | 3.2 OD450
25C6 bivalent scFv on phage (scFv, V domains shown) VH: QVQLVQSGAEVRKPGASVKVSCKASGDTFSSYAISWVRQAPGQGLEWMGGIIPIFGTANYAQAFQGRVTITANESTSTAYMELSSLRSEDTAIYYCARDNPTLLGSDYWGAGTLVTVSS VL: DIQMTQSPSTLSASIGDRVTITCRASENISSRLAWYQQKPGKAPKLLISNAYHLASGAPSRFSGSGSGTDFTLTISSLQPDDFATYYCQQRSNYPHTFGGGTKLEIK |  |  | 32 nM | ~1000 nM | 0.2 fraction | 1.8 OD450
25F1 bivalent scFv on phage (scFv, V domains shown) VH: QVQLVQSGAEVRKPGASVKVSCKASGDTFSSYAISWVRQAPGQGLEWMGGIIPIFGTANYAQAFQGRVTITANESTSTAYMELSSLRSEDTAIYYCARDNPTLLGSDYWGAGTLVTVSS VL: DIQMTQSPSTLSASIGDRVTITCRASEGINNSLAWYQQKPGKAPKLLISRASRLASGAPSRFSGSGSGTDFTLTISSLQPDDFATYYCQQYSSTPHTFGGGTKLEIK |  |  | 0.9 nM | 40 nM | 0.1 fraction | 2.3 OD450
25D8 bivalent scFv on phage (scFv, V domains shown) VH: QVQLVQSGAEVRKPGASVKVSCKASGDTFSSYAISWVRQAPGQGLEWMGGIIPIFGTANYAQAFQGRVTITANESTSTAYMELSSLRSEDTAIYYCARDNPTLLGSDYWGAGTLVTVSS VL: DIQMTQSPSTLSASIGDRVTITCRASEGISSNLAWYQQKPGKAPKLLISRAYRLASGAPSRFSGSGSGTDFTLTISSLQPDDFATYYCQQRATYPLTFGGGTKLEIK |  |  | 5.8 nM | ~3000 nM | 0.2 fraction | 3.2 OD450
25C12 bivalent scFv on phage (scFv, V domains shown) VH: QVQLVQSGAEVRKPGASVKVSCKASGDTFSSYAISWVRQAPGQGLEWMGGIIPIFGTANYAQAFQGRVTITANESTSTAYMELSSLRSEDTAIYYCARDNPTLLGSDYWGAGTLVTVSS VL: DIQMTQSPSTLSASIGDRVTITCRASEDISSVLAWYQQKPGKAPKLLIYNASRLASGAPSRFSGSGSGTDFTLTISSLQPDDFATYYCQQRANNPHTFGGGTKLEIK |  |  | 100 nM | ~1000 nM | 0.3 fraction | 2.2 OD450
25F10 bivalent scFv on phage (scFv, V domains shown) VH: QVQLVQSGAEVRKPGASVKVSCKASGDTFSSYAISWVRQAPGQGLEWMGGIIPIFGTANYAQAFQGRVTITANESTSTAYMELSSLRSEDTAIYYCARDNPTLLGSDYWGAGTLVTVSS VL: DIQMTQSPSTLSASIGDRVTITCRASEGIHNRLAWYQQKPGKAPKLLISHASNLASGAPSRFSGSGSGTDFTLTISSLQPDDFATYYCQQYSNYPLTFGGGTKLEIK |  |  | 0.2 nM | 22 nM | 0.1 fraction | 1.7 OD450
25G8 bivalent scFv on phage (scFv, V domains shown) VH: QVQLVQSGAEVRKPGASVKVSCKASGDTFSSYAISWVRQAPGQGLEWMGGIIPIFGTANYAQAFQGRVTITANESTSTAYMELSSLRSEDTAIYYCARDNPTLLGSDYWGAGTLVTVSS VL: DIQMTQSPSTLSASIGDRVTITCRASESIGRSLAWYQQKPGKAPKLLIYRASRLASGAPSRFSGSGSGTDFTLTISSLQPDDFATYYCQQSSTTPLTFGGGTKLEIK |  |  | 7.2 nM | 300 nM | 0.1 fraction | 2.1 OD450
25A10 scFv, purified monovalent (scFv, V domains shown) VH: QVQLVQSGAEVRKPGASVKVSCKASGDTFSSYAISWVRQAPGQGLEWMGGIIPIFGTANYAQAFQGRVTITANESTSTAYMELSSLRSEDTAIYYCARDNPTLLGSDYWGAGTLVTVSS VL: DIQMTQSPSTLSASIGDRVTITCRASESISHNLAWYQQKPGKAPKLLISNASRLASGAPSRFSGSGSGTDFTLTISSLQPDDFATYYCQQYSNYPLTFGGGTKLEIK | 5.4 nM | ~500 nM |  |  |  | 
25D3 bivalent scFv on phage (scFv, V domains shown) VH: QVQLVQSGAEVRKPGASVKVSCKASGDTFSSYAISWVRQAPGQGLEWMGGIIPIFGTANYAQAFQGRVTITANESTSTAYMELSSLRSEDTAIYYCARDNPTLLGSDYWGAGTLVTVSS VL: DIQMTQSPSTLSASIGDRVTITCRASENIHRRLAWYQQKPGKAPKLLIYSAYSLASGAPSRFSGSGSGTDFTLTISSLQPDDFATYYCQQNSDYPHTFGGGTKLEIK |  |  | 17 nM | 170 nM | 0.1 fraction | 1.6 OD450
25D9 bivalent scFv on phage (scFv, V domains shown) VH: QVQLVQSGAEVRKPGASVKVSCKASGDTFSSYAISWVRQAPGQGLEWMGGIIPIFGTANYAQAFQGRVTITANESTSTAYMELSSLRSEDTAIYYCARDNPTLLGSDYWGAGTLVTVSS VL: DIQMTQSPSTLSASIGDRVTITCRASEDILGRLAWYQQKPGKAPKLLIYRASRLASGAPSRFSGSGSGTDFTLTISSLQPDDFATYYCQQRANYPLTFGGGTKLEIK |  |  | 1.7 nM | 230 nM | 0.2 fraction | 3 OD450
25D6 bivalent scFv on phage (scFv, V domains shown) VH: QVQLVQSGAEVRKPGASVKVSCKASGDTFSSYAISWVRQAPGQGLEWMGGIIPIFGTANYAQAFQGRVTITANESTSTAYMELSSLRSEDTAIYYCARDNPTLLGSDYWGAGTLVTVSS VL: DIQMTQSPSTLSASIGDRVTITCRASENIYSNLAWYQQKPGKAPKLLISSASRLASGAPSRFSGSGSGTDFTLTISSLQPDDFATYYCQQNSNNPHTFGGGTKLEIK |  |  | 0.5 nM | ~80 nM | 0.1 fraction | 1.6 OD450
25C10 bivalent scFv on phage (scFv, V domains shown) VH: QVQLVQSGAEVRKPGASVKVSCKASGDTFSSYAISWVRQAPGQGLEWMGGIIPIFGTANYAQAFQGRVTITANESTSTAYMELSSLRSEDTAIYYCARDNPTLLGSDYWGAGTLVTVSS VL: DIQMTQSPSTLSASIGDRVTITCRASENIYGNLAWYQQKPGKAPKLLISRASRLASGAPSRFSGSGSGTDFTLTISSLQPDDFATYYCQQRYTYPLTFGGGTKLEIK |  |  | 1.8 nM | 28 nM | 0.1 fraction | 3.2 OD450
25B6 bivalent scFv on phage (scFv, V domains shown) VH: QVQLVQSGAEVRKPGASVKVSCKASGDTFSSYAISWVRQAPGQGLEWMGGIIPIFGTANYAQAFQGRVTITANESTSTAYMELSSLRSEDTAIYYCARDNPTLLGSDYWGAGTLVTVSS VL: DIQMTQSPSTLSASIGDRVTITCRASENIRSGLAWYQQKPGKAPKLLIYRASRLASGAPSRFSGSGSGTDFTLTISSLQPDDFATYYCQQYDDYPHTFGGGTKLEIK |  |  | 0.3 nM | 23 nM | 0.1 fraction | 1.4 OD450
25C10 scFv, purified monovalent (scFv, V domains shown) VH: QVQLVQSGAEVRKPGASVKVSCKASGDTFSSYAISWVRQAPGQGLEWMGGIIPIFGTANYAQAFQGRVTITANESTSTAYMELSSLRSEDTAIYYCARDNPTLLGSDYWGAGTLVTVSS VL: DIQMTQSPSTLSASIGDRVTITCRASENIYGNLAWYQQKPGKAPKLLISRASRLASGAPSRFSGSGSGTDFTLTISSLQPDDFATYYCQQRYTYPLTFGGGTKLEIK | 56 nM |  |  |  |  | 
25A12 bivalent scFv on phage (scFv, V domains shown) VH: QVQLVQSGAEVRKPGASVKVSCKASGDTFSSYAISWVRQAPGQGLEWMGGIIPIFGTANYAQAFQGRVTITANESTSTAYMELSSLRSEDTAIYYCARDNPTLLGSDYWGAGTLVTVSS VL: DIQMTQSPSTLSASIGDRVTITCRASEGIHRYLAWYQQKPGKAPKLLIYHASRLASGAPSRFSGSGSGTDFTLTISSLQPDDFATYYCQQRANYPYTFGGGTKLEIK |  |  | 2.2 nM | 220 nM | 0.1 fraction | 3.2 OD450
